Data: article PMC3904261 (British Journal of Pharmacology, 2013)
Bridge positions count the residues as written; N and C are the ends. Ends that are not written are not given here.

B1: [Cys^5]-CGRP (peptide)
chain: ACDTCTCVTHRLAGLLSRSGGVVKNNFVPTNVGSKAF-NH2
modifications: disulfide 2-7; N-terminus assumed
SMILES: CC(C)C[C@H](NC(=O)CNC(=O)[C@H](C)NC(=O)[C@H](CC(C)C)NC(=O)[C@H](CCCNC(=N)N)NC(=O)[C@H](Cc1c[nH]cn1)NC(=O)[C@@H](NC(=O)[C@@H](NC(=O)[C@@H]1CSSC[C@H](NC(=O)[C@H](C)N)C(=O)N[C@@H](CC(=O)O)C(=O)N[C@@H]([C@@H](C)O)C(=O)N[C@@H](CS)C(=O)N[C@@H]([C@@H](C)O)C(=O)N1)C(C)C)[C@@H](C)O)C(=O)N[C@@H](CC(C)C)C(=O)N[C@@H](CO)C(=O)N[C@@H](CCCNC(=N)N)C(=O)N[C@@H](CO)C(=O)NCC(=O)NCC(=O)N[C@H](C(=O)N[C@H](C(=O)N[C@@H](CCCCN)C(=O)N[C@@H](CC(N)=O)C(=O)N[C@@H](CC(N)=O)C(=O)N[C@@H](Cc1ccccc1)C(=O)N[C@H](C(=O)N1CCC[C@H]1C(=O)N[C@H](C(=O)N[C@@H](CC(N)=O)C(=O)N[C@H](C(=O)NCC(=O)N[C@@H](CO)C(=O)N[C@@H](CCCCN)C(=O)N[C@@H](C)C(=O)N[C@@H](Cc1ccccc1)C(N)=O)C(C)C)[C@@H](C)O)C(C)C)C(C)C)C(C)C
B2: [Ala^6]-CGRP (peptide)
chain: ACDTAACVTHRLAGLLSRSGGVVKNNFVPTNVGSKAF-NH2
modifications: disulfide 2-7
B3: [Ala^4]-CGRP (peptide)
chain: ACDAATCVTHRLAGLLSRSGGVVKNNFVPTNVGSKAF-NH2
modifications: disulfide 2-7

Assays:
[1] = molecular target: T1, CGRP receptor (calcitonin receptor-like receptor in complex with receptor activity-modifying protein 1) (human (endogenous in SK-N-MC), UniProt Q16602 23-461; O60894 27-148); assay: cell-based or functional assay
[2] = molecular target: T1, CGRP receptor (calcitonin receptor-like …); assay: cell-based or functional assay; remark: listed apart in the source
[3] = molecular target: T1, CGRP receptor (calcitonin receptor-like …); assay: radioligand binding; displacement of ^125I-CGRP from SK-N-MC cell membranes by unlabelled peptides, microcentrifugation-based binding assay; [Cys^5]-CGRP and its control on another batch of SK-N-MC cells; details: one partner purified
[4] = molecular target: AMY_(1(a)) receptor (human HA-tagged CT (a) receptor with human myc-tagged RAMP1) (human) (UniProt O60894)
Sequence of AMY_(1(a)) receptor (human HA-tagged CT (a) receptor with human myc-tagged RAMP1) (human) (O60894 whole entry, looked up): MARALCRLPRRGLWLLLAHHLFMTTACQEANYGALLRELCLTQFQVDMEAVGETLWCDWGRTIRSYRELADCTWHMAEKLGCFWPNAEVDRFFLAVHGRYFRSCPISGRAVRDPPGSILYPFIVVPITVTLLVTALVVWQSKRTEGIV

T1 sequence (Q16602 23-461, chain 1 of 2): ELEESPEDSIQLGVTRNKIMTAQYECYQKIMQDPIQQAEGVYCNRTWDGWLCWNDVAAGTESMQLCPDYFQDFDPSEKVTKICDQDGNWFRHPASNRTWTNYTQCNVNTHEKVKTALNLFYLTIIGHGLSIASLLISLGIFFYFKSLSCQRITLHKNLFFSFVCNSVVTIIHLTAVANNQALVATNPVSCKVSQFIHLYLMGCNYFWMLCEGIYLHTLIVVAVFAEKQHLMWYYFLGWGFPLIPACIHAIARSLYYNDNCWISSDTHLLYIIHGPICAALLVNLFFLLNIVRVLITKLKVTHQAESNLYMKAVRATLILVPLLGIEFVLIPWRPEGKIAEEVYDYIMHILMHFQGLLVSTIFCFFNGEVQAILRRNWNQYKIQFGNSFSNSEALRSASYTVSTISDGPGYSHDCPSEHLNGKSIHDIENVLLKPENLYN
T1 sequence (O60894 27-148, chain 2 of 2): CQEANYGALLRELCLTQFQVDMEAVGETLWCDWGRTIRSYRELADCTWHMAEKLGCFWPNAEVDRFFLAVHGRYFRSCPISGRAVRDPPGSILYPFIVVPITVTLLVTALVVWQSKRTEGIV

| Binder | Emax (% CGRP), β-arrestin 2 translocation in CHO-K1 cells expressing the human CGRP receptor [1] [% CGRP] | pEC50, cAMP production in SK-N-MC cells (other clone of cells, AlphaScreen; footnote: no response seen in five experiments) [1] | pEC50, β-arrestin 2 translocation in CHO-K1 cells expressing the human CGRP receptor [1] | pEC50, cAMP production in Cos 7 cells transfected with CLR and RAMP1 [2] | pKi [3] | Emax (% CGRP), cAMP production in Cos 7 cells with the AMY (1(a)) receptor [4] [% CGRP] | pEC50, cAMP production in Cos 7 cells with the AMY (1(a)) receptor [4] | Emax (% CGRP), cAMP production in SK-N-MC cells [1] [% CGRP] | pEC50, cAMP production in SK-N-MC cells [1] | pEC50, cAMP production in the second clone of SK-N-MC cells, AlphaScreen (control experiment) [2] |
| --- | --- | --- | --- | --- | --- | --- | --- | --- | --- | --- |
| B1 | 55 | 7.18 | 8.25 | 7.9 | 8 | 50 | 7.78 | – | – | – |
| B2 | 43 | – | 7.74 | – | 8.57 | 42 | 7 | 72 | 6.59 | 7.39 |
| B3 | 73 | – | 8.42 | – | 9.4 | 161 | 8.57 | 100 | 7.43 | 7.58 |
